Measurements as given in PMC9881156, “POT-3 preferentially binds the terminal DNA-repeat on the telomeric G-overhang”.

Legend:
POT-3 [1] = target: T1, POT-3 (Caenorhabditis elegans, UniProt G5EFG7 1-215); assay: EMSA; conditions: apparent, EMSA: 20 mM Tris-HCl pH 8.0, 50 mM NaCl, 1 mM MgCl2, 5 mM DTT, 50 ug/ml BSA, 4% Ficoll 400, on ice 10 min, competition and S4 Kd: same salts with 0.001% …
T1 sequence: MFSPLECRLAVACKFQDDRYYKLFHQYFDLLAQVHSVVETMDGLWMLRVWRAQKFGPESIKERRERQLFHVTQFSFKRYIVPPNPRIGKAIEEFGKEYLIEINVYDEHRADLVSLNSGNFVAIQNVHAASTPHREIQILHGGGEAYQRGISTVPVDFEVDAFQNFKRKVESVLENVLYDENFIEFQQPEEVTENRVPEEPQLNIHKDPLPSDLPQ

POT-2 [2] = target: T2, POT-2 (Caenorhabditis elegans, UniProt O45595 1-251); assay: EMSA; conditions: apparent, EMSA: 20 mM Tris-HCl pH 8.0, 50 mM NaCl, 1 mM MgCl2, 5 mM DTT, 50 ug/ml BSA, 4% Ficoll 400, on ice 10 min, competition and S4 Kd: same salts with 0.001% …
T2 sequence: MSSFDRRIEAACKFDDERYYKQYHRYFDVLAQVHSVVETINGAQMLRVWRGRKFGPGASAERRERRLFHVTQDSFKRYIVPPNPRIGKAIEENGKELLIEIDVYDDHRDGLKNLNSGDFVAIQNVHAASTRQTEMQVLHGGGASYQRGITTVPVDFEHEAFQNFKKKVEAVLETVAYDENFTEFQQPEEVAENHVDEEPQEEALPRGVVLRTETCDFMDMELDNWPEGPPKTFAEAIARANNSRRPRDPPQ

POT-3 [3] = target: T1, POT-3; assay: analytical gel filtration; 3 proteins per DNA; 500 mM NaCl; EMSA: 20 mM Tris-HCl pH 8.0, 50 mM NaCl, 1 mM MgCl2, 5 mM DTT, 50 ug/ml BSA, 4% Ficoll 400, on ice 10 min; competition and S4 Kd: same salts with 0.001% Tween-20, room temperature; gel filtration: 20 mM Tris-HCl pH 8.0, 500 mM NaCl, 10 mM DTT, 10% glycerol (binding); conditions: protein: recombinant; tags: 6xHis
POT-2 [4] = target: T2, POT-2; assay: as above; conditions: protein: recombinant; tags: 6xHis
POT-3 [5] = target: T1, POT-3; assay: analytical gel filtration; 1 protein per DNA; 500 mM NaCl; EMSA: 20 mM Tris-HCl pH 8.0, 50 mM NaCl, 1 mM MgCl2, 5 mM DTT, 50 ug/ml BSA, 4% Ficoll 400, on ice 10 min; competition and S4 Kd: same salts with 0.001% Tween-20, room temperature; gel filtration: 20 mM Tris-HCl pH 8.0, 500 mM NaCl, 10 mM DTT, 10% glycerol (binding); conditions: protein: recombinant; tags: 6xHis
POT-2 [6] = target: T2, POT-2; assay: as above; conditions: protein: recombinant; tags: 6xHis

fragment 7 / 12mer, (TTAGGC)2 3' overhang
Kd (POT-3 [1]; on ice): 0.16 nM | Kd (POT-3 [1]; room temperature): 5 nM | Kd (POT-2 [2]; on ice): 0.1 nM | Kd (POT-2 [2]; room temperature): 7.2 nM

TTAGGCTTAGGCTTAGGCTTAGGC (ssDNA) [(TTAGGC)4 ssDNA]
binding result (POT-3 [3]): binds | binding result (POT-2 [4]): binds

TTAGGCTTAGGC (ssDNA) [(TTAGGC)2 ssDNA]
binding result (POT-3 [5]): binds | binding result (POT-2 [6]): binds
